# Assay results from article PMC3973318.
# Read-outs that look alike come from different tables or passages of the source.
# T1: DRH-3 (Caenorhabditis elegans, UniProt Q93413 1-1119)
# T1 sequence: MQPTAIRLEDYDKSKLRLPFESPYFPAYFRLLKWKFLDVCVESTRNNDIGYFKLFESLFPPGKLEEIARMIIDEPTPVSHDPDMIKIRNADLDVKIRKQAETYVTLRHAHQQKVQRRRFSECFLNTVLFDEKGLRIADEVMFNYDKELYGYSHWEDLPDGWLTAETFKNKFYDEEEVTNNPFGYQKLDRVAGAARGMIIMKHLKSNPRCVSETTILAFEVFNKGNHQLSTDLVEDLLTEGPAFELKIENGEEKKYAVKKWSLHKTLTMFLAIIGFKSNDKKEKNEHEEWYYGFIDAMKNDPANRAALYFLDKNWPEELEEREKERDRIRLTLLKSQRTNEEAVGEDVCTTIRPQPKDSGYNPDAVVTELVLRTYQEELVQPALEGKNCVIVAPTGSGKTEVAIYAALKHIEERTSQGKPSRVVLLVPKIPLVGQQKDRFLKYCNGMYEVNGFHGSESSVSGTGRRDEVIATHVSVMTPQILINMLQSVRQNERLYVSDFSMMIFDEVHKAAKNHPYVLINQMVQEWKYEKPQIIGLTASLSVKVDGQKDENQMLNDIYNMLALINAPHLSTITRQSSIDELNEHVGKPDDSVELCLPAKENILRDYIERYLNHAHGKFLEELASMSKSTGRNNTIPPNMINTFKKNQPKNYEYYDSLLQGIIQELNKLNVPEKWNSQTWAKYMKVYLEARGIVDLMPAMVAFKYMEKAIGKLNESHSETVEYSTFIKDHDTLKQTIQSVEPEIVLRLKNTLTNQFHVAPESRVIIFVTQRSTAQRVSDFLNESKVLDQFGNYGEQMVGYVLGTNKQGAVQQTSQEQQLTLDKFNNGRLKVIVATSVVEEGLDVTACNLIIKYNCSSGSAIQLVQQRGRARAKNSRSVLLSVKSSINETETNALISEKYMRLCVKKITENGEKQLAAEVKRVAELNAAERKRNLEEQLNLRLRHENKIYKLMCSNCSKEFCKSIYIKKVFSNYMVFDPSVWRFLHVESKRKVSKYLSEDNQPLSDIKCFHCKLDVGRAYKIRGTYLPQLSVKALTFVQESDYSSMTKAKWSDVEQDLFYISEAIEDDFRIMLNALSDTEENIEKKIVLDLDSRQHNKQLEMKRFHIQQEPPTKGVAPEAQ
# T2: MDA-5 (human, UniProt Q9BYX4 1-1025)
# T2 sequence: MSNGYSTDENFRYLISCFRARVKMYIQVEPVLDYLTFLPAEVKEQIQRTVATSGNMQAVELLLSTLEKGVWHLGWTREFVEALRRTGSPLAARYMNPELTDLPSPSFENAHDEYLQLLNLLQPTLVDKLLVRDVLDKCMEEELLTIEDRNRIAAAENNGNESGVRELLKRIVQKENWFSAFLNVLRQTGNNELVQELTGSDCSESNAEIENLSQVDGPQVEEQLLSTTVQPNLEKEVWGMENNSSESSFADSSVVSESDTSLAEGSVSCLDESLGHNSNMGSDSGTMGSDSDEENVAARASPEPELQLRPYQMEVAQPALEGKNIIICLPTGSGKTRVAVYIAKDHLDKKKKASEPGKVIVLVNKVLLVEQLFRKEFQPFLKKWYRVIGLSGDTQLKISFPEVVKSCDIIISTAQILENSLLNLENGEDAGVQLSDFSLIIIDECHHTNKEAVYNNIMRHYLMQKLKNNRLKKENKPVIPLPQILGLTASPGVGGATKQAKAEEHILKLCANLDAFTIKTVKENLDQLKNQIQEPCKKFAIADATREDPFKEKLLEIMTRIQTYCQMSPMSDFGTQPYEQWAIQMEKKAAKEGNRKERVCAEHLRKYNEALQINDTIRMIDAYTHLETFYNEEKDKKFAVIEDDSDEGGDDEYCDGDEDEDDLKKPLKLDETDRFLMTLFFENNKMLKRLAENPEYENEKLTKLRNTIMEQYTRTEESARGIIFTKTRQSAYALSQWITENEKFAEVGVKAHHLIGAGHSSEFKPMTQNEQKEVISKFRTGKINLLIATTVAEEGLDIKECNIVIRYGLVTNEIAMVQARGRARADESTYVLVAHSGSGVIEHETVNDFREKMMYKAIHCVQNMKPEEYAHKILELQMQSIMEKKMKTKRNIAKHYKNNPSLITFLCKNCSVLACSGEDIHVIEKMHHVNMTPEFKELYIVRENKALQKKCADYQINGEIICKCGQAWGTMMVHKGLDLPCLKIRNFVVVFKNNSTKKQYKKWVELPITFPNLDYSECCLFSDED
# T3: RIG-I (UniProt O95786 1-925)
# T3 sequence: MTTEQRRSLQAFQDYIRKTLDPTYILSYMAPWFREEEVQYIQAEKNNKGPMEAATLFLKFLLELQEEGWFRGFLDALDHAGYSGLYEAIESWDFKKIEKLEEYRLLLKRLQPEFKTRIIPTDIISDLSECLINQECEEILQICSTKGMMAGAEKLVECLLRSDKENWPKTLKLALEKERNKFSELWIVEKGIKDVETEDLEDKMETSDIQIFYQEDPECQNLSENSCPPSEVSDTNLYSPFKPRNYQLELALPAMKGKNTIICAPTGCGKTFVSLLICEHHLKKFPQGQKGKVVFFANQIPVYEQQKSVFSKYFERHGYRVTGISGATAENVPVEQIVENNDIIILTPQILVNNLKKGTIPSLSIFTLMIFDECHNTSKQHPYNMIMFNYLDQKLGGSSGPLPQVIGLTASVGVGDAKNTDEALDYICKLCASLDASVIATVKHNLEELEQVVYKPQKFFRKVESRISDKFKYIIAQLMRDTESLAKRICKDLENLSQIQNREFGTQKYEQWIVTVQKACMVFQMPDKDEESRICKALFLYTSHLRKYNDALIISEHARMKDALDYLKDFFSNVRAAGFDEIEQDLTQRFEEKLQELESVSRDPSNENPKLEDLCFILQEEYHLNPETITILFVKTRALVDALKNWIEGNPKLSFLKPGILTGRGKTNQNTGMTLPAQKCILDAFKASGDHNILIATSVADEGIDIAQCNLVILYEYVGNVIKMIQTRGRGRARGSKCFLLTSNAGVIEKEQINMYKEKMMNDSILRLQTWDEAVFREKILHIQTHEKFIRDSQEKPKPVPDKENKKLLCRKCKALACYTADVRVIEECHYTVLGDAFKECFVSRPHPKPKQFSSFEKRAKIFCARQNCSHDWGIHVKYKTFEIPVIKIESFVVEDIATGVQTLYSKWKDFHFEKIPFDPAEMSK
# T4: ΔN-DRH3 (Caenorhabditis elegans, UniProt Q93413 300-1119)
# T4 sequence: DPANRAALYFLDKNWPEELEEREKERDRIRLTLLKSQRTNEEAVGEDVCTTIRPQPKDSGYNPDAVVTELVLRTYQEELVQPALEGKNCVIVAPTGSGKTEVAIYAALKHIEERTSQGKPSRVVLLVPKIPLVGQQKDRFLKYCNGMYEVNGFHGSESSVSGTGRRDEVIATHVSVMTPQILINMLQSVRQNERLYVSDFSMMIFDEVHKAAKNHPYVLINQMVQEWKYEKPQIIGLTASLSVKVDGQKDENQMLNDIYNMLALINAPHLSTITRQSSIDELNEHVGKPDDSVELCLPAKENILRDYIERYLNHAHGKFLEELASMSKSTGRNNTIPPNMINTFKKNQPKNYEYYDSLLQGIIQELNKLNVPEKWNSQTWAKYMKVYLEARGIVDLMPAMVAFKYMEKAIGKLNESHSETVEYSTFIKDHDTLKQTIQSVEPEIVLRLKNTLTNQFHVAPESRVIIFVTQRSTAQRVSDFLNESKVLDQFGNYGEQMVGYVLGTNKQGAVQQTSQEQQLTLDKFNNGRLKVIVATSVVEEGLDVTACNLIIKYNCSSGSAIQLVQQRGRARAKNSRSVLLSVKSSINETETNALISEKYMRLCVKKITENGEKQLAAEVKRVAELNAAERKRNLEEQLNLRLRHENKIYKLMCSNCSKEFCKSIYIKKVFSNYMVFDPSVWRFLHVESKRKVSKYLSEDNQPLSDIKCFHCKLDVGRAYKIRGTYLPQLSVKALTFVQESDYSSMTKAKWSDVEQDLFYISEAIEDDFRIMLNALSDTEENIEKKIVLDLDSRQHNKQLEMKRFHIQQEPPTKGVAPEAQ
# How the values were obtained:
# Test in all cases: EMSA
# DRH-3 [1] = biological target: T1, DRH-3
# MDA-5 = biological target: T2, MDA-5
# RIG-I = biological target: T3, RIG-I
# DRH-3 [2] = biological target: T1, DRH-3; remark: listed apart in the source
# ΔN-DRH3 [3] = biological target: T4, ΔN-DRH3
# DRH-3 [4] = biological target: T1, DRH-3; remark: listed apart in the source
# ΔN-DRH3 [5] = biological target: T4, ΔN-DRH3; remark: listed apart in the source
# ΔN-DRH3 [6] = biological target: T4, ΔN-DRH3; remark: listed apart in the source
# ΔN-DRH3 [7] = biological target: T4, ΔN-DRH3; remark: listed apart in the source
binder,measurement,setting,value
ds22 (dsRNA) RNA 1: GGGUACAGACUGACUAGGAUCG RNA 2: CGAUCCUAGUCAGUCUGUACCC,Kd,DRH-3 [1],230 ± 7 nM
ds25 (dsRNA) RNA 1: GGGUAUAGACUGACUAGGAUCUCCC RNA 2: GGGAGAUCCUAGUCAGUCUAUACCC,Kd,MDA-5,123 ± 4 nM
same,Kd,RIG-I,38 ± 6 nM
same,Kd,DRH-3 [2],218 ± 7 nM
same,Kd,ΔN-DRH3 [3],376 ± 5 nM
ds34 (dsRNA) RNA 1: GGAGUGCAUCUCCUUCCCUCCUUUCCUUCUGGUC RNA 2: GACCAGAAGGAAAGGAGGGAAGGAGAUGCACUCC,Kd,DRH-3 [2],384 ± 19 nM
ds12 (dsRNA) RNA 1: GCCCAGACCACC RNA 2: GGUGGUCUGGGC,Kd,DRH-3 [4],839 ± 53 nM
same,Kd,ΔN-DRH3 [5],522 ± 67 nM
"dsPPP12 (dsRNA, 5' triphosphate on top strand) RNA 1: GCCCAGACCACC RNA 2: GGUGGUCUGGGC",Kd,ΔN-DRH3 [6],174 ± 12 nM
ds18 (dsRNA) RNA 1: GGGUAUAGACUGACUAGG RNA 2: CCUAGUCAGUCUAUACCC,Kd,DRH-3 [4],679 ± 135 nM
"dsPPP25 (dsRNA, 5' triphosphate on top strand) RNA 1: GGGUAUAGACUGACUAGGAUCUCCC RNA 2: GGGAGAUCCUAGUCAGUCUAUACCC",Kd,ΔN-DRH3 [7],120 ± 6 nM
